Tests used:
noise exposed adult rats [1] = test: Noise-induced hearing loss/synaptopathy, synaptic analysis of inner hair cells (Example A1); format: in vivo, rat; settings: sustained release formulation, 0.005% BDNF in Poloxamer 407, single unilateral intratympanic administration 24 hrs after noise; Day 28; compared to vehicle treatment; FIG. 3B
Procedure: (§1) Male rats (Charles River) approximately 10-11 months of age served as subjects (N=6 per group). Prior to any procedures, animals were anesthetized using a combination of xylazine (10 mg/kg) and ketamine (90 mg/kg) for up to one hour via the intraperitoneal route. If needed, an intraoperative booster was administered intraperitoneally representing one-tenth of the original dose.
Noise exposure—Anesthetized animals (4 at a time) were placed in an enclosure and exposed to noise. The characteristics of the acoustic trauma were as follows: a single period of 1 h, sound pressure level of 105 dB SPL with a narrow band pass of 8-16 kHz. Noise was delivered using a Grason Stadler white noise generator, filtered through a Krohn Hite 3750 unit, amplified using a Crown D75 unit, and conveyed via a JBL speaker (model 2446H). Following treatment, the animals were returned to the vivarium. Noise exposure was calibrated over a range of 80-115 dB SPL across a wide range of frequencies using the Acoustical Interface Precision Microphone System and the Tucker Davis Technologies system. […]
Synaptic Analysis—Flat-mounted cochlear pieces from each ear were imaged at low magnification (10×) and the total length of the imaged tissue was measured and the frequency domains (4, 10, 20 and 40 kHz) were mapped onto the images. […]

noise exposed adult rats [2] = test: Noise-induced hearing loss/synaptopathy, ABR wave I amplitude (Example A1); format: in vivo, rat; settings: sustained release formulation, 0.005% BDNF in Poloxamer 407, single unilateral intratympanic administration 24 hrs after noise; compared to vehicle treatment; FIG. 3A
Procedure: as §1
Noise exposure—Anesthetized animals (4 at a time) were placed in an enclosure and exposed to noise. The characteristics of the acoustic trauma were as follows: a single period of 1 h, sound pressure level of 105 dB SPL with a narrow band pass of 8-16 kHz. […]
Auditory Brainstem Response (ABR) assessment (wave 1)—During the procedure, additional anesthetic (xylazine and ketamine) was administered if needed to maintain the depth of anesthesia sufficient to insure immobilization and relaxation. ABRs were recorded in an electrically and acoustically shielded chamber, one ear at a time. […] Acoustic calibration was performed with TDT software (SigCal) and thresholds were expressed as dB SPL in conditions identical to that of threshold recordings in animals. […] Wave 1 was quantified by averaging the wave 1 amplitude from intensities ranging between 60-80 dB SPL.
Animals were exposed to noise on Day 0. […] ABR threshold and ABR wave I amplitude were measured weekly in live animals for up to 4 weeks. […]

B1: brain-derived neurotrophic factor (protein, UniProt P23560 129-247, looked up)
Neurotrophic factor BDNF: HSDPARRGELSVCDSISEWVTAADKKTAVDMSGGTVTVLEKVPVSKGQLKQYFYETKCNPMGYTKEGCRGIDKRHWNSQCRTTQSYVRALTMDSKKRIGWRFIRIDTSCVCTLTIKRGR
modifications: Neurotrophic factor BDNF in 16% poloxamer 407 gel
notes: Human recombinant BDNF
number of ribbon synapses per inner hair cell (noise exposed adult rats [1]): increased | hearing function (wave I amplitude) (noise exposed adult rats [2]): improved

— patent US20230122991A1, “GROWTH FACTOR FORMULATION FOR CONDITION ASSOCIATED WITH OTIC EVENT” (OTONOMY, INC., priority 2020, published 2023)
